Results published in patent US20070128190A1 (GLENMARK PHARMACEUTICALS S A, published 2007).

Tests used:
[1] = biological target: human α2 integrin with endogenous hamster β1 on CHO cells (human; hamster); assay: cell-based or functional assay
[2] = biological target: human α2β1 integrin on human cells (platelets, leukocytes, HT1080) (human, UniProt P17301 30-1181; P05556 21-798); assay: cell-based or functional assay
GST [3] = biological target: T1, GST (UniProt P08515 1-218 = GST); assay: ELISA, GST on immobilized TMC-2206
T1 construct: also called GST fusion protein (negative control)

[4] = biological target: T2, human platelet α2β1 integrin (immobilized on microtiter plates) (human, UniProt P17301 30-1181; P05556 21-798); assay: competition with Eu-TMC-2206 on platelet α2β1-coated plates
T2 construct: plates custom-coated with human platelet α2β1 by GTI Inc; also called immobilized α2β1 integrin; α2β1-coated plates

[5] = biological target: T3, GST-human α2 I domain fusion protein (human, UniProt P17301 153-368); assay: ELISA, GST fusion protein on immobilized TMC-2206, Kd estimated from EC50
T3 construct: the reverse primer ends at ...SIEGTV; also called GST-α2 I domain; hα2I; not shown: glutathione S-transferase tag encoded by vector pGEX-2TK
T3 sequence: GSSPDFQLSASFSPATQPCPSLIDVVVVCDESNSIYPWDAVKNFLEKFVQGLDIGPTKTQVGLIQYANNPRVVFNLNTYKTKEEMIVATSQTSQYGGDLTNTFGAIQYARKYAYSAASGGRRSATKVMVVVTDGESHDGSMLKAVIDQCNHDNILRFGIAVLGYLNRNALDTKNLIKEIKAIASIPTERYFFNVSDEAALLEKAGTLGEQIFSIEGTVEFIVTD
Description: (§1) The fusion proteins were then expressed and purified as described above for the human GST-α2 I domain fusion protein. […] Therefore, these and the primate fusion proteins were further purified by size exclusion chromatography on a Sephadex 75 10/30 (GE-Amersham) column (primate) by FPLC on an Akta-Basic FPLC system (GE-Amersham) to yield a monomeric fraction. […] The Kᵢ assays were performed as described above in Example 2. […] Plates were sealed and coating occurred overnight at 4° C. The next morning, the plates were washed twice with TBS solution and then blocked using 200 μL of the blocking solution described above for 1 hour at room temperature with shaking. After blocking, the blocking solution was removed but the wells were not washed. Instead, a serial dilution of GST fusion protein was made, added to the wells and then incubated for 2 hours at room temperature with shaking. The wells were then aspirated and a TBS washing buffer applied for 5 minutes at room temperature. The washing step was repeated twice more before the secondary antibody was applied. The secondary antibody step consisted of Amersham's HRP-conjugated rabbit anti-GST antibody diluted 1:2000 in blocking buffer. […] The reaction within the wells was then read and quantified by spectrophotometric absorption using the Molecular Dynamics plate reader and associated Softmax software, respectively. […]

[6] = biological target: T4, GST-rhesus α2 I domain fusion protein (rhesus monkey, UniProt P17301 153-368 (human entry)); assay: as above
T4 construct: also called rhesus GST-α2 I; not shown: glutathione S-transferase tag encoded by vector pGEX-2TK
T4 sequence: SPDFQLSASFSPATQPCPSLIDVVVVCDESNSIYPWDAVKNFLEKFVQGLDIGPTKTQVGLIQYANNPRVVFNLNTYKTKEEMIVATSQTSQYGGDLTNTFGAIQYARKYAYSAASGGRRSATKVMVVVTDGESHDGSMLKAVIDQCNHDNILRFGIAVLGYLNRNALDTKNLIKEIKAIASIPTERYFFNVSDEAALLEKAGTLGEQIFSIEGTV
Description: as §1

[7] = biological target: T2, human platelet α2β1 integrin …; assay: equilibrium binding of Eu-TMC-2206 to human platelet α2β1-coated plate, Scatchard
Description: Wells in a 96 well microtiter plate were coated with platelet α2β1-integrin (custom-coated with human platelet α2β1 by GTI Inc., Wis.) and then blocked with nonfat milk. […] After concentration in prewashed MicroSep concentrators (30-kDa cutoff; Pall Life Sciences at 9500 rpm (7000×g) in a JA-20 rotor (Beckman Instruments, Inc.) for 20 minutes at 4° C.), antibodies were adjusted to 4.0 mg/mL with PBS containing a final concentration of 100 mM NaHCO₃, pH 9.3. The mAb/bicarbonate mixture (0.250 mL) was gently mixed into a vial containing 0.2 mg N¹-(p-isothiocyanatobenzyl)-diethylenetriamine-N¹,N²,N³N³-tetraacetic acid chelated with Eu³⁺ (Eu-N1-ITC; Perkin Elmer Life Sciences) and reacted overnight at 4° C. without stirring. Each labeled antibody mixture was applied to a separate PD-10 column (GE Biosciences, Piscataway, N.J.) pre-equilibrated with Running Buffer (50 mM Tris, pH 7.4 and 138 mM NaCl). Fractions (0.5 mL) were collected and assayed for total protein (Bradford reagent; Bio-Rad Laboratories, Hercules, Calif.) using a SpectraMax 384 absorbance plate reader and for europium after 1:10.000 dilution in DELFIA Enhancement Solution (Perkin-Elmer) by time-resolved fluorescence (TRF) using a Victor2 multi-label plate reader (Perkin Elmer). […]

GST [8] = biological target: T1, GST; assay: GST competing Eu-humanized TMC-2206 off α2β1-coated plate

Chain of human α2β1 integrin on human cells (platelets, leukocytes, HT1080) (P17301 30-1181 E534K limits assumed, chain 1 of 2): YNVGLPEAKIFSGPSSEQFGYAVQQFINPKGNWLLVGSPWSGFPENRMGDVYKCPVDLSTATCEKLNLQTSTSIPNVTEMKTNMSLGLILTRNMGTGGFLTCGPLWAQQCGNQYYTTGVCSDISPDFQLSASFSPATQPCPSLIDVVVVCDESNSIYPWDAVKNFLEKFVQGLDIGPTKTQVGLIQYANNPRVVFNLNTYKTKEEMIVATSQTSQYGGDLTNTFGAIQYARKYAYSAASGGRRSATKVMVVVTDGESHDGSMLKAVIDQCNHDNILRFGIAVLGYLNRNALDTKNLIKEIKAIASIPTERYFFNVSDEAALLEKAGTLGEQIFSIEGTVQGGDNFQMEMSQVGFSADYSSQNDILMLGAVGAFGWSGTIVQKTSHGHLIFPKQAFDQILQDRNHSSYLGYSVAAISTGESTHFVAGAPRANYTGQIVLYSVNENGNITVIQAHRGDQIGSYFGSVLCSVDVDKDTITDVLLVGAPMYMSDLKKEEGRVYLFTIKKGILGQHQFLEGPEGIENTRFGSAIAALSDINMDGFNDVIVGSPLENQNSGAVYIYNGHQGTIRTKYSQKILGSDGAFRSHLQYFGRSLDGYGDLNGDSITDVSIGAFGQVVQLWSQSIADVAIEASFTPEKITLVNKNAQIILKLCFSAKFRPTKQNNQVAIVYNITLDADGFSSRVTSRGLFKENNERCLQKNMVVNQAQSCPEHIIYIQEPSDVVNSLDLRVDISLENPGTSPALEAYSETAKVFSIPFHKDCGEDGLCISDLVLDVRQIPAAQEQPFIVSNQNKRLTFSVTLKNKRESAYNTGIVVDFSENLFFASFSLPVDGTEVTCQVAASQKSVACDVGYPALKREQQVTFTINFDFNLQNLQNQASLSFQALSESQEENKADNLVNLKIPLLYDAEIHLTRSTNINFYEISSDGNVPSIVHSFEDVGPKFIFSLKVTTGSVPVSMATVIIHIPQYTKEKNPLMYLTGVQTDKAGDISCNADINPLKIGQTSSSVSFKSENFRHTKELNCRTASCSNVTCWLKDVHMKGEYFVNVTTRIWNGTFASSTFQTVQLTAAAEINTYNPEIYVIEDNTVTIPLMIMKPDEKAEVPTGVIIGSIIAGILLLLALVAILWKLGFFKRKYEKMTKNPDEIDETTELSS
Chain of human α2β1 integrin on human cells (platelets, leukocytes, HT1080) (P05556 21-798 limits assumed, chain 2 of 2): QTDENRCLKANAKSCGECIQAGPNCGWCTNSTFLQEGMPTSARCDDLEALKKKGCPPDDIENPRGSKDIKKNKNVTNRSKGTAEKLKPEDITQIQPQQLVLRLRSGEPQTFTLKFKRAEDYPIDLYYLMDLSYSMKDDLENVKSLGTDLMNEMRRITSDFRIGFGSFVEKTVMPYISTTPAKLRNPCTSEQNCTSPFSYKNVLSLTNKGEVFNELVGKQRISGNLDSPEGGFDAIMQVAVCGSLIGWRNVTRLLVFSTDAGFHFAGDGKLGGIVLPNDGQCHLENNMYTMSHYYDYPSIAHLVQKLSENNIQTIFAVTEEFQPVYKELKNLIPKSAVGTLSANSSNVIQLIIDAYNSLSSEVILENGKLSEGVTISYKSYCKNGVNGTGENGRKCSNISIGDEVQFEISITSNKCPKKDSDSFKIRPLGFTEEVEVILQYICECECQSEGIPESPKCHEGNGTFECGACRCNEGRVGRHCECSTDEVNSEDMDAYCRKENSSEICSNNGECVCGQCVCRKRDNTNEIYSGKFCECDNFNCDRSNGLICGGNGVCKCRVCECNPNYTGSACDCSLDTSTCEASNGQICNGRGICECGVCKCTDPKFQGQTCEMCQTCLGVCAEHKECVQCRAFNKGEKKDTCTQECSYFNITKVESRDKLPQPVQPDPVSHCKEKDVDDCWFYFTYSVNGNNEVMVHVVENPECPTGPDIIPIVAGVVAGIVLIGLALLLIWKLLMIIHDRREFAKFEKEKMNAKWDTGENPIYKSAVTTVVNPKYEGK
T1 sequence (P08515 whole entry, the tested form may be a part): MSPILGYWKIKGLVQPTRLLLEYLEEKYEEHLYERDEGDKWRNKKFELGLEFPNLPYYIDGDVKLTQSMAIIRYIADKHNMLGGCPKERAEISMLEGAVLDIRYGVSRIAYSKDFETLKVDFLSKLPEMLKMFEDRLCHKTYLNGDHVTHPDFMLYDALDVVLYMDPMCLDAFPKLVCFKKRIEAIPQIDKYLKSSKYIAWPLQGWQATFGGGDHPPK
T2 sequence (P17301 30-1181 E534K limits assumed, chain 1 of 2): as the sequence (P17301 30-1181 E534K limits assumed, chain 1 of 2) above
T2 sequence (P05556 21-798 limits assumed, chain 2 of 2): as the sequence (P05556 21-798 limits assumed, chain 2 of 2) above
Chain of human α2 integrin with endogenous hamster β1 on CHO cells (human; hamster) (P17301 30-1181 E534K): as the sequence (P17301 30-1181 E534K limits assumed, chain 1 of 2) above

Binder | EC50 (nM), cell adhesion to collagen assay [1] | EC50 (nM), human platelet adhesion to human collagen Type I, ADP 0 µM [2] | EC50 (nM), human platelet adhesion to human collagen Type I, ADP 20 µM [2] | EC50 (nM), human platelet adhesion to human collagen Type II, ADP 0 µM [2] | EC50 (nM), human platelet adhesion to human collagen Type II, ADP 20 µM [2] | EC50 (nM), human platelet adhesion to human collagen Type III, ADP 0 µM [2] | EC50 (nM), human platelet adhesion to human collagen Type III, ADP 20 µM [2] | EC50 (nM), human platelet adhesion to human collagen Type IV, ADP 0 µM [2] | EC50 (nM), human platelet adhesion to human collagen Type IV, ADP 20 µM [2] | EC50 (nM), human platelet adhesion to human collagen Type VI, ADP 0 µM [2] | EC50 (nM), human platelet adhesion to human collagen Type VI, ADP 20 µM [2] | binding result (GST [3]) | Ki [4] | Kd [5] | Kd [6] | Kd [7] | binding result (GST [8])
TMC-2206 (antibody, mouse IgG1, V domains shown, murine IgG1/κ secreted by hybridoma BHA2.1; labelled with Eu-N1-ITC where used as tracer; also called BHA2.1) VH: QVQLKESGPGLVAPSQSLSITCTVSGFSLTNYGIHWVRQPPGKGLEWLGVIWARGFTNYNSALMSRLIITKDNSQSQVFLKMNSLQPDDSATYFCARANDGVYYAMDYWGQGTSVTVSS VL: QFVLTQSPAFLSASPGEKVTMTCSANSSVNYIHWYQQKSGTSPKKWIYDTSKLASGVPVRFSGSGSGTSYSLTISSMETEDAATYYCQQWTTNPLTFGAGTRVELK | 1.03 nM | 1.7 nM | 9.5 nM | 1.9 nM | 27 nM | 1.6 nM | 11 nM | 10 nM | > 1000 nM | 2.3 nM | 23 nM | no binding (tested: ~1 µM) | 0.11 nM | 0.18 nM | 0.04 nM | 0.374 nM | –
Humanized TMC-2206 (hIgG4/κ VH12.0/VL10.0Q) (antibody, labelled with Eu or Alexa-488 in some assays) heavy: not shown light: DFVMTQSPAFLSVTPGEKVTITCSAQSSVNYIHWYQQKPDQAPKKLIYDTSKLASGVPSRFSGSGSGTDYTFTISSLEAEDAATYYCQQWTTNPLTFGQGTKVEIKRTVAAPSVFIFPPSDEQLKSGTASVVCLLNNFYPREAKVQWKVDNALQSGNSQESVTEQDSKDSTYSLSSTLTLSKADYEKHKVYACEVTHQGLSSPVTKSFNRGEC | – | – | – | – | – | – | – | – | – | – | – | – | – | – | – | – | no binding (tested: 0.4 µM)
